One data set concerns the target T1, Tu-CAS (Tetranychus urticae, UniProt T1KF23).
T1 construct: gene 107363798; tag removal not mentioned; PLP-dependent, predicted cytosolic
T1 sequence (T1KF23 1-320): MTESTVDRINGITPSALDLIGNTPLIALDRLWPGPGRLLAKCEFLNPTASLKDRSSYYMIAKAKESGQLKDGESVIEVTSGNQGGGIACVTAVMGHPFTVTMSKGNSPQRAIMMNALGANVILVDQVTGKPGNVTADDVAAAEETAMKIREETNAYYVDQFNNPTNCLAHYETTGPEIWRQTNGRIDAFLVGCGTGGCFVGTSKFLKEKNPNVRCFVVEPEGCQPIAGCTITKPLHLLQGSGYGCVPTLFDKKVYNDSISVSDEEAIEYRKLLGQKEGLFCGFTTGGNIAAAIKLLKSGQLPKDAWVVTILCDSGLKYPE
Description: cofactor dependence of enzymatic activity. The format is biochemical. The conditions noted are these: 500 µM pyridoxal-5'-phosphate in assay; Schiff base lysine conserved by sequence.

Substrate in data set [1]: N[C@@H](CS)C(=O)O
Description: purified protein. The format is biochemical, Tetranychus urticae. The conditions noted are these: co-substrate sodium cyanide (standard 0.01 M stock), 0.2 M Tris pH 8.5, 37 °C, preincubated with 500 µM pyridoxal-5'-phosphate.

Substrate in data set [2]: CC(=O)OC[C@H](N)C(=O)O
The data set is described as follows: purified protein. The conditions noted are these: co-substrate sodium sulfide (standard 2 mM); preincubated with 500 µM pyridoxal-5'-phosphate; pH not given.

Regarding `Cc1ncc(COP(=O)(O)O)c(C=O)c1O` [pyridoxal-5′-phosphate], the “cofactor dependence of enzymatic activity” value at Tu-CAS is reported as “Enzymatic activity was dependent on pyridoxal-5′-phosphate as a cofactor”.

B1: Tu-CAS (Tetranychus urticae) (protein)
chain: T1 sequence (T1KF23 1-320)
notes: tag removal not mentioned; PLP-dependent, predicted cytosolic
As a reminder, the Km is the substrate concentration at which the rate is half of its maximum. For orientation: kcat/Km means the second-order rate constant that governs catalysis at low substrate concentration. In the case of B1, in “purified protein [1]”, the Km worked out at 312 µM and the kcat/Km was 6840 M⁻¹ s⁻¹. Moreover, in “purified protein [2]”, the Michaelis constant (Km) is 3170 µM and the kcat/Km was found to be 203 M⁻¹ s⁻¹.

These data come from PMC4011162, “A gene horizontally transferred from bacteria protects arthropods from host plant cyanide poisoning” (eLife, 2014).
